Test results published in patent publication KR20200059381A.

Assays:
[1] = target: 구제역 바이러스 혈청형 O 배양액(cal1~cal4) (Foot-and-mouth disease virus serotype O); test: sandwich ELISA, cal4, 1E58 coat 8 ug/ml, 1E58-HRP 0.2 ug/ml, 450 nm
[2] = target: 구제역 바이러스 혈청형 O 배양액(cal1~cal4) (Foot-and-mouth disease virus serotype O); test: sandwich ELISA, cal1, 1E58 coat 8 ug/ml, 1E58-HRP 0.2 ug/ml, 450 nm
[3] = target: 구제역 바이러스 혈청형 O 배양액(cal1~cal4) (Foot-and-mouth disease virus serotype O); test: sandwich ELISA, cal2, 1E58 coat 1 ug/ml, 1E58-HRP 0.8 ug/ml, 450 nm

B1: 단클론항체 1E58 (antibody, V domains shown)
VH: EFQLQQSRPELAKPGASVKISCKTSGHTFTTYTMHWVKQSHVKSLEWIGCFNPNNGGATYNQKFKGKATLTMDKSSNTAYVEVRSLTSDDSAVYYCAYGNYVNFDYWGQGTTLTVSS
VL: DIVLTQSPASLAVSLGQRATISYRASKSVSTSGYSYMHWNQQKPGQPPRLLIYLVSNLESGVPARFSGSGSGTDFTLNIHPVEEEDAATYYCQHIRELTRSEGGPSWKN
O.D [1]: 0.27 O.D
O.D [2]: 2.35 O.D
O.D [3]: 1.97 O.D
